Assay: soluble fraction after stress (log2 fold change); higher = more stays soluble; pooled small domains, quantitative proteomics
Conditions: stress: 75 degC
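Note: 20 min heating vs room temperature control held 20 min.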

Sequence | soluble fraction (log2)
HMSFFNGNQMKILRKKLQLNQEEMGEKLGIKKSYVSQLENNRKEITEEIDQILQELEQEYQDKM | -0.642
HMNQPRQRKVIFELIDERNALERVLMHFAHLEKQVEKIDERKYQVTLYYDKEDETEILIRVLSFG | -2.01
HMEVPNLIGMTDKDLQRTYFQLPIEAAGDGSVVIKQLPEPGEKVKEGSVIRVLLG | 0.193
HMDAYSYFIRTYPLVDDPLIGDIRRIFAETHDGNPAGDADVRHILWRLLFERELYPTLDEATADWY | -2.39
HMLGNIERALEMLQEVAATMDPVDIRLLLSMAQVESVRGNTEAAVKLIDEALVIDPGNERIEQIRLRVL | -0.482
HMGSQLYTLEVEADEKISLIENNPLLIQKIYLKDNNLFSYKIASSSKTEIASIEKELEKNPSIKRLETA | -0.086
HMQSVPELDQQFKIAIENNDFIKLAQLKEQGYHPSKEVMQSLSNTTPNNTIIAVQKIFGLKA | 0.546
HMQQEPNFYIVDGNTNQIVDRYYAPDSNVAHQYLGQWRQQHDPQETGNYRYGRLSSETEERYRNLAA | 0.22
HMANDNFPLKLGSKGPRVLQLKTMLIQSLSNDALPKGRSSDAFDSELEALLSRNNLPTVIDETNFRVLTK | -0.0514
HMGSGKGAAHTILGISADASDDEIKAAWRKLVQENHPDKLVSQGLPDEFVQAATDRLRLINTAYQSMLNRP | -0.0948
HMINNINKLPETQFIKLFANIFENSQFIAVALYKKKGDGFSDFKDLINKIMDIFENTTKEKKLKILNA | -0.381
HMELLSVPSRLGTFFLGGEAGHIIRLYLPGDPTPRIAEHETPVLSEARRQLLEYLAGRRTAFSFPL | -0.0691
HMDSYADVLSDYRGKYKTNTISGLKGLRDKIREDMLAAADSLDFEKAALLRDEMNDLNKKIELKEKT | ≥ 1.04
HMFDGNIKIVEDAFSVTIVARGTEVKISGDPENVYLASKTVEGLLTLIDKGEAITDQRVHYVIGLVREG | -2.45
HMPATIEGIRLYLSSGLIKGVGEEMASRIVKAFGTDTIRVLDEEPERLLKVRGVGKKSLDRIRTSWAEH | -0.366
HMTMIIQLDKNITQEQRQFLVEELNRLSISPNFVSTQFTNYIVGIPKKEFDIRLIGNLPGIADIHFV | -1.58
HMTNIDIEKSIKNTITANYDDVLNYHNEDDNKTFASGDSRYSFDYDEKTKTLIVFTNSKVDAVFVDGIKKK | 0.308
HMKTMAVYPVGTRVLTSDGEIGVVEKQNSEAPERPVIKILKGADGHDYEKPDFKDLMKILTLFIVDTI | 0.182
HMRGPDLSKDFHEYISSQWMFFGRNAYQIAEQINKDTQLMSKYGKTTPSGVHYHIKQIQQEMEN | -0.785
HMTVDAVALGRRVRHLRKQAGLTLDQLAERTGVSGSHLSLVENARREPRLSLVQRIAEVLGVPVEDL | -1.49
HMEPEYIGELEKRIKKLKTHTYSSIDRLMKSISKKYKITTQVLHDDFKNKHNEIPDEWVKQF | -0.126
HMRDPVDKDNYLGDWDKNKTYPAGYVMTFGDKNYLALQEVPAGTKPGATDPDPFWVLDTGKTLKD | -0.14
HMLLREKLESVLPFISVSALAKTYFKRSPQWFYQRLNGSIVNGKPIRFNDAELKTLAGALTDIGKKISQAA | -0.285
HMNDELMEQIDEWHKAEKHQEIIDALEQIPEAERDFETTGFLARAYNNIEEYAKAADLLESVRE | 0.0973
HMELEAFPNPTDMFLSFTTKEKTPLAIYDINGKQVLYVEQITSSSKINVSKLSEGVYFAKTNQGTVKWVK | -2.35
HMQNYLEFIGNELKALTSIPSPSGYTKDVAAYLMKTLSDMGYEPQLSNKGNVFVTIGGEGNPLVLAAHVD | 0.0285
HMDYIITHYPDNKRFETQVDGVVAFVQYRLSGDKLDIIHTIVPPAIGGRGIAAALVKYAYDYAIENGMK | -2.13
HMQGATVYIKSDDIGKTTNEQGSFNFDKLKKNRYTLEISFIGYETKNLQAYTDRENIVQLNRKS | -0.307

Sequence | soluble fraction (log2)
HMFWVESDVDFVDKTSAHNAIKENERVIGMYISYRLNGTWTTEQYVGIDTSKDNWENPDNWNIL | -1.42
HMEGLATRLRFLRQARGLSYHALARLSGVTHTALHQIEAGKNIPGLDTAEKIAMALDVDPRWFAYGRGDPS | -3.18
HMSPAVEDYLEQIHNLIAQKGYARVVDIAGNLKISQASVTNMIQRMDADGLVVYERYRGVVLTETGRK | -1.28
HMTLHDLFPQAVEFVSEKEMISTAELQRKLMISYNSAAKIIDQLLHVDFIQKSESAGKYSVLIK | -2.66
HMPSLSAILHDARVAAGLSMRQASAASGLSIGFISMLEQGKVQDISLQRLGRLVTAYDLEPLDVIEAAG | -1.83
HMTKGVKVEIGTEEASVDLYVVMEYGTPIQKAAYDAQESVRKAIETMTNLHVVRVDVHVQGVSF | -0.466
HMPGGLSAEDVEKMVEKVLTVNGDVVEEIRSGRDPKGKKIKFLAGLVMRDARGQADAAAVSGILERRLKEG | 0.0256
HMKKLPDDANDIIERVSSRLAQKFRFGYHTIDDMKQQAALFAWEGIYDSWDDSRPLENFLWIHVRNRLYN | -0.111
HMSINISFEPADHLGKDVIFIRFPYDNEWIQRVRKLKGAKWSQSQRAWHVPDTEHYRTLFQLPQKI | -2.73
HMESADEESNALMYDGLLAMRGKRYEVALEFFDALVKHDPDFAEGWNKRATVLYLLGRYERSIADIKQVLA | 0.239
HMQITDTEAIATTLDEIIAANPKEWERLKAGQEQLVKFFVGQVMRVTKGRANPQVVNDLLKERL | -0.346
HMSIYYQIYESLKKDLSNNLYKPGEKLPSENVLSKRFGVNRHTIRRSLQLLKNEGILFSKRGSGIIVHD | -3.45
HMDLGEQIIEKLRAAGGFLAITDKSPAEEIYELFATSKKNYKKAVGGLYKKGLLVIEDDGIRLTPAGR | -0.503
HMEDEEILNEIRHTEQYVYYFGNYIMEHHVSRGLSKEKVIASLARELQIEIADIREDFDGMIEQIKTNILN | -0.329
HMSEYIFGKNVVKEAFNNPSRIEEIYVLDKNMEFVSLAKKYHIKYTVITSSEMNKMVSGNHQGVVALVK | -2.1
HMDPPISNDARNAINAKLMKFSELHPNEMKKLVEAYKKEFKVSKISPITLARQGEFLSHAISKIDDT | -0.0671
HMPPNHADLKSSGLKATLPRLKILEIFQNSQVRHLSAEDVYKLLLAENLDVGLATVYRVLTQFEQAGL | -0.522
HMSVHSAELKKLKAHLLGIIGRELETQPSTENREEMVRQILHQSYESLRLNLPMQLKEELFNEILAEVL | -0.459
HMRVELVVVPELRQQLLPEARELANSAGLQLRVRGQSPADETRTIVVTQSPAAGTRVAARSIVLVE | -1.12
HMVPEMIRDVISKSIRDMGVLPDHMQINERIALIQSLKKQQILGIKGAVAETARQLGISVPTVYRYMKKG | -0.946
HMGDIFTAEDAKERIDYSGVDGIMLARGIFGNPWLIRDIREYLEYGKILHPVTQLDRVNMAIEHTRKT | 0.169
HMVAGHLQEKNGQFYAVLSYKDTKGKRRTKWVPTGLMVRGNKKRAEAMLNDIRRKFVPPEQED | -0.474
HMGDIMLLFKENGKVYFLVGNQYTYVKNPTELSAIKTMMKQAGYDTHEHTNTTQVAYIKRLATE | -2.35
HMGEIHALIPGLVSRLFVKPGDRVENGQGLLILEAMKMENEIDSPISGVVGKIYIKAGDKVEKGELIMEIN | -1.45
HMRIDSFEDARRRFEYDYLTRLLKLTQGSVTQAAKLAKRNRTEFYKLLQRHGIEAAHFKPTS | -1.53
HMFEMPTSLVRTLSAIAIKQPVMQSEIIKLRGAGAYDHIKELIIRELVHRKEEGRSPILTTTKKFQEYFRL | -2.52
HMPLDKDTTLDEIYRRFNMEHPADYKGHSLSMGDIVVFRQDGKQTAYYVDEGADYRQVPEFFVK | -0.0344

Source: the domain aggregation screens of Martell et al. (2025)
